Measured values published in article PMC8537121.

Columns and labels:
[1] = target: Human MAP/Microtubule Affinity Regulating Kinase 4 (MARK4), recombinant, containing both kinase and UBA domains (human) (UniProt Q96L34); assay: other fluorescence titration; quenching of the intrinsic fluorescence of MARK4 (emission at 344 nm) by irisin, 0-1 µM; fitted to a modified Stern-Volmer equation
[2] = target: Human MAP/Microtubule Affinity Regulating Kinase 4 (MARK4), recombinant, containing both kinase and UBA domains (human) (UniProt Q96L34); assay: ITC; VP-ITC; 15 µM MARK4 in the sample cell, 200 µM irisin in the syringe; two-site model
[3] = target: Human MAP/Microtubule Affinity Regulating Kinase 4 (MARK4), recombinant, containing both kinase and UBA domains (human) (UniProt Q96L34)

Chain of UniProt Q96L34 (Q96L34 44-370): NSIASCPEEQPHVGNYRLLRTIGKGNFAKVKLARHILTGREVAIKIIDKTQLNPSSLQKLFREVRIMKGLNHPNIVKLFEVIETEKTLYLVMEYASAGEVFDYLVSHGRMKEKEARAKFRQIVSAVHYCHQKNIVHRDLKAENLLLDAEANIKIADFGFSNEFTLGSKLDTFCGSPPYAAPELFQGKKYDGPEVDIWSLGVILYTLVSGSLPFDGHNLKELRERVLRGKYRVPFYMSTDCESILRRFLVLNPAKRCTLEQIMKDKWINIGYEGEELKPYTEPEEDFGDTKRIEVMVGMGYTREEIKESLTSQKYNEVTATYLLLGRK

Ka [1]: 8e+06 M⁻¹
Ka1 (site 1 of the two-site model) [2]: 2590 M⁻¹
Ka2 (site 2 of the two-site model) [2]: 1.19e+06 M⁻¹
dH1 (site 1 of the two-site model) [2]: -1.55e+06 cal/mol
dH2 (site 2 of the two-site model) [2]: 190000 cal/mol
IC50 of inhibition of MARK4 kinase activity (ATPase assay), irisin 0-15 µM [3]: 2.71 µM
Substance: Human irisin (natural protein)
